The text below walks through data of article PMC10958042.

The chains are these.
B1: ATGL (PNPLA2, patatin-like phospholipase domain-containing protein 2), human, full length / perilipin-1, mouse (mPlin1) (parent)
chain 1: MFPREKTWNISFAGCGFLGVYYVGVASCLREHAPFLVANATHIYGASAGALTATALVTGVCLGEAGAKFIEVSKEARKRFLGPLHPSFNLVKIIRSFLLKVLPADSHEHASGRLGISLTRVSDGENVIISHFNSKDELIQANVCSGFIPVYCGLIPPSLQGVRYVDGGISDNLPLYELKNTITVSPFSGESDICPQDSSTNIHELRVTNTSIQFNLRNLYRLSKALFPPEPLVLREMCKQGYRDGLRFLQRNGLLNRPNPLLALPPARPHGPEDKDQAVESAQAEDYSQLPGEDHILEHLPARLNEALLEACVEPTDLLTTLSNMLPVRLATAMMVPYTLPLESALSFTIRLLEWLPDVPEDIRWMKEQTGSICQYLVMRAKRKLGRHLPSRLPEQVELRRVQSLPSVPLSCAAYREALPGWMRNNLSLGDALAKWEECQRQLLLGLFCTNVAFPPEALRMRAPADPAPAPADPASPQHQLAGPAPLLSTPAPEARPVIGALGL
chain 2: MSMNKGPTLLDGDLPEQENVLQRVLQLPVVSGTCECFQKTYNSTKEAHPLVASVCNAYEKGVQGASNLAAWSMEPVVRRLSTQFTAANELACRGLDHLEEKIPALQYPPEKIASELKGTISTRLRSARNSISVPIASTSDKVLGATLAGCELALGMAKETAEYAANTRVGRLASGGADLALGSIEKVVEFLLPPDKESAPSSGRQRTQKAPKAKPSLVRRVSTLANTLSRHTMQTTAWALKQGHSLAMWIPGVAPLSSLAQWGASAAMQVVSRRQSEVRVPWLHNLAASQDESHDDQTDTEGEETDDEEEEEESEAEENVLREVTALPNPRGLLGGVVHTVQNTLRNTISAVTWAPAAVLGTVGRILHLTPAQAVSSTKGRAMSLSDALKGVTDNVVDTVVHYVPLPRLSLMEPESEFRDIDNPSAEAERKGSGARPASPESTPRPGQPRGSLRSVRGLSAPSCPGLDDKTEASARPGFLAMPREKPARRVSDSFFRPSVMEPILGRAQYSQLRKKS
B2: ATGL (PNPLA2, patatin-like phospholipase domain-containing protein 2), human, full length / CGI-58 (ABHD5, 1-acylglycerol-3-phosphate O-acyltransferase ABHD5), human (parent)
chain 1: B1 chain 1
chain 2: MAAEEEEVDSADTGERSGWLTGWLPTWCPTSISHLKEAEEKMLKCVPCTYKKEPVRISNGNKIWTLKFSHNISNKTPLVLLHGFGGGLGLWALNFGDLCTNRPVYAFDLLGFGRSSRPRFDSDAEEVENQFVESIEEWRCALGLDKMILLGHNLGGFLAAAYSLKYPSRVNHLILVEPWGFPERPDLADQDRPIPVWIRALGAALTPFNPLAGLRIAGPFGLSLVQRLRPDFKRKYSSMFEDDTVTEYIYHCNVQTPSGETAFKNMTIPYGWAKRPMLQRIGKMHPDIPVSVIFGARSCIDGNSGTSIQSLRPHSYVKTIAILGAGHYVYADQPEEFNQKVKEICDTVD

The variants in one experiment derive from B1. Nature of the experiment: LUMIER: Protein A-ATGL variant and firefly luciferase-partner co-expressed in HEK293T, lysates immunoprecipitated on IgG-coated plates, co-precipitated partner measured as luciferase luminescence. Conditions: with perilipin-1, mouse (mPlin1), transient co-transfection, IgG-coated LUMITRAC plates, 2 h at 4 °C, three PBS washes, Bright-Glo luciferase reagent, triplicates per assay, two …, parent: 0.26, not graded, scale: log2 fold change of co-immunoprecipitated luminescence relative to wild-type ATGL within each experiment.
Turning to chain 1 P86K, the screen value is -0.8.

Consider chain 1 L102K, for which the screen value is -1.19.

For the variant chain 1 E125L, the screen value was -0.268.

For chain 1 A104E, the screen value was -1.07.

For the variant chain 1 S87A, the screen value was found to be 0.0206.

Turning to chain 1 S87E, the screen value is -0.527.

The experiment is the same for the next values; noted with them: with perilipin-1, mouse (mPlin1), transient co-transfection, IgG-coated LUMITRAC plates, 2 h at 4 °C, three PBS washes, Bright-Glo luciferase reagent, triplicates per assay, two …, parent: -0.37, not graded, scale: log2 fold change of co-immunoprecipitated luminescence relative to wild-type ATGL within each experiment.
Regarding chain 1 P86K, the screen value is -0.498.

On to chain 1 L102K, for which the screen value was -0.807.

Consider chain 1 E125L, for which the screen value is -0.225.

Consider chain 1 A104E, for which the screen value was -0.823.

With chain 1 S87A, the screen value is -0.536.

Take chain 1 S87E: the screen value was -0.625.

In a further experiment the parent is B2. The experiment is described as above. Conditions: with CGI-58 (ABHD5, 1-acylglycerol-3-phosphate O-acyltransferase ABHD5), transient co-transfection, IgG-coated LUMITRAC plates, 2 h at 4 °C, three PBS washes, Bright-Glo luciferase reagent, triplicates per assay, two …, parent: 0.32, not graded, scale: log2 fold change of co-immunoprecipitated luminescence relative to wild-type ATGL within each experiment.
For the variant chain 1 F348E, the screen value was -0.83.

As to chain 1 R351L, the screen value is -0.948.

For chain 1 L102K, the screen value was -0.532.

chain 1 V127L: the screen value is -0.449.

As for chain 1 K275A, the screen value was -0.731.

Consider chain 1 H109E, for which the screen value came to 0.0522.

Consider chain 1 G153K, for which the screen value was -0.536.

For chain 1 G153A, the screen value was -0.595.

Take chain 1 L178A: the screen value is -0.598.

As for chain 1 Q140K, the screen value is -0.444.

Turning to chain 1 Q140A, the screen value was determined as 0.428.

As for chain 1 A434L, the screen value is 0.0792.

With chain 1 L261E, the screen value was -1.2.

As for chain 1 P156K, the screen value was -0.794.

As for chain 1 P103K, the screen value was -0.089.

With chain 1 Y415A, the screen value was determined as 0.149.

In the case of chain 1 R113K, the screen value turned out to be 0.189.

Turning to chain 1 R113L, the screen value was -0.625.

As for chain 1 L62K, the screen value is -0.614.

As for chain 1 L62A, the screen value is -0.556.

Turning to chain 1 A104E, the screen value was determined as 0.291.

In the case of chain 1 S87E, the screen value was -0.0233.

Regarding chain 1 S87A, the screen value is -0.244.

Turning to chain 1 G66A, the screen value is -0.000473.

Turning to chain 1 G66L, the screen value was determined as 0.0179.

Regarding chain 1 F35A, the screen value was -0.0512.

As for chain 1 F35E, the screen value was 0.146.

Consider chain 1 R95K, for which the screen value came to 0.177.

Take chain 1 R95L: the screen value was -0.121.

As to chain 1 L159A, the screen value is -0.737.

On to chain 1 G59L, for which the screen value was -0.404.

As for chain 1 T41A, the screen value was 0.269.

Take chain 1 E125L: the screen value is -0.624.

Take chain 1 G16K: the screen value is -0.139.

Regarding chain 1 R329E, the screen value was -0.412.

In the case of chain 1 R163K, the screen value came to 0.351.

chain 1 G189E: the screen value is -1.39.

With chain 1 E314A, the screen value was -0.218.

Turning to chain 1 V328A, the screen value is -0.513.

With chain 1 I70K, the screen value was -0.355.

As for chain 1 I70A, the screen value is -0.496.

On to chain 1 S158E, for which the screen value was -0.0835.

Take chain 1 S158A: the screen value turned out to be 0.402.

With chain 1 S106K, the screen value was -0.182.

For the variant chain 1 P86K, the screen value was -0.174.

For the variant chain 1 E368A, the screen value was -0.427.

On to chain 1 N39E, for which the screen value is -0.3.

On to chain 1 P258L, for which the screen value was -1.23.

Consider chain 1 A453E, for which the screen value was 0.381.

Regarding chain 1 Q396A, the screen value was -0.502.

Turning to chain 1 K92L, the screen value is -0.67.

The experiment is the same for the next values; noted with them: with CGI-58 (ABHD5, 1-acylglycerol-3-phosphate O-acyltransferase ABHD5), transient co-transfection, IgG-coated LUMITRAC plates, 2 h at 4 °C, three PBS washes, Bright-Glo luciferase reagent, triplicates per assay, two …, parent: 0.45, not graded, scale: log2 fold change of co-immunoprecipitated luminescence relative to wild-type ATGL within each experiment.
For the variant chain 1 F348E, the screen value is -1.02.

For the variant chain 1 R351L, the screen value is -1.04.

Consider chain 1 L102K, for which the screen value was -0.83.

Regarding chain 1 V127L, the screen value is -0.203.

Take chain 1 K275A: the screen value is -0.473.

With chain 1 N180L, the screen value was -0.679.

As for chain 1 H109E, the screen value is -0.021.

As to chain 1 G153K, the screen value is -0.602.

For the variant chain 1 G153A, the screen value was -0.455.

Consider chain 1 L178A, for which the screen value is -0.392.

Consider chain 1 Q140K, for which the screen value came out at 0.322.

For chain 1 Q140A, the screen value turned out to be 0.0685.

Turning to chain 1 A434L, the screen value is 0.226.

Consider chain 1 L261E, for which the screen value was -0.989.

For chain 1 P156K, the screen value is -0.596.

With chain 1 P103K, the screen value was 0.0251.

Regarding chain 1 Y415A, the screen value is -0.124.

Take chain 1 R113K: the screen value stood at 0.534.

In the case of chain 1 R113L, the screen value was -0.259.

As for chain 1 L62K, the screen value is -0.447.

In the case of chain 1 L62A, the screen value is -0.528.

As to chain 1 A104E, the screen value was found to be 0.0407.

With chain 1 S87E, the screen value was -0.304.

Regarding chain 1 S87A, the screen value is -0.0566.

chain 1 G66A: the screen value stood at 0.0899.

In the case of chain 1 G66L, the screen value was -0.54.

For chain 1 F35A, the screen value was -0.207.

On to chain 1 F35E, for which the screen value stood at 0.336.

In the case of chain 1 R95K, the screen value was -0.0705.

Regarding chain 1 R95L, the screen value is -0.396.

For chain 1 L159A, the screen value is -0.542.

Regarding chain 1 G59L, the screen value is -0.665.

Turning to chain 1 T41A, the screen value was determined as 0.283.

Regarding chain 1 E125L, the screen value was -0.2.

Take chain 1 G16K: the screen value was determined as 0.515.

For chain 1 R329E, the screen value was -0.601.

Turning to chain 1 R163K, the screen value worked out at 0.226.

For the variant chain 1 G189E, the screen value was -1.13.

chain 1 E314A: the screen value is -0.112.

Consider chain 1 V328A, for which the screen value was -0.464.

For the variant chain 1 I70K, the screen value was -0.676.

On to chain 1 I70A, for which the screen value was -0.552.

Turning to chain 1 S158E, the screen value was -0.000176.

chain 1 S158A: the screen value was 0.00753.

Take chain 1 S106K: the screen value is -0.557.

On to chain 1 P86K, for which the screen value is -0.669.

For the variant chain 1 E368A, the screen value was -0.714.

As for chain 1 N39E, the screen value is -0.215.

Turning to chain 1 P258L, the screen value was -1.16.

Regarding chain 1 A453E, the screen value worked out at 0.474.

Consider chain 1 Q396A, for which the screen value is -0.818.

chain 1 K92L: the screen value is -0.328.

Still in this experiment, the particulars now being: with CGI-58 (ABHD5, 1-acylglycerol-3-phosphate O-acyltransferase ABHD5), transient co-transfection, IgG-coated LUMITRAC plates, 2 h at 4 °C, three PBS washes, Bright-Glo luciferase reagent, triplicates per assay, two …, parent: 0.32, not graded, value at the no-binding floor (a bound), scale: log2 fold change of co-immunoprecipitated luminescence relative to wild-type ATGL within each experiment.
As for chain 1 N180L, the screen value was -1.8.
